# Experimental data reported in publication PMC7793593 (Science Advances, 2021).
# B1: HAdV-F41 hexon protein (natural protein, human adenovirus F41 (strain Tak))
# chain: MATPSMMPQWSYMHIAGQDASEYLSPGLVQFARATDTYFSLGNKFRNPTVAPTHDVTTDRSQRLTLRFVPVDREDTAYSYKVRFTLAVGDNRVLDMASTYFDIRGVLDRGPSFKPYSGTAYNSLAPKTAPNPCEWKDNNKIKVRGQAPFIGTNINKDNGIQIGTDTTNQPIYADKTYQPEPQVGQTQWNSEVGAAQKVAGRVLKDTTPMLPCYGSYAKPTNEKGGQASLITNGTDQTLTSDVNLQFFALPSTPNEPKAVLYAENVSIEAPDTHLVYKPDVAQGTISSADLLTQQAAPNRPNYIGFRDNFIGLMYYNSTGNMGVLAGQASQLNAVVDLQDRNTELSYQLMLDALGDRSRYFSMWNQAVDSYDPDVRIIENHGVEDELPNYCFPLGGSAATDTYSGIKANGQTWTADDNYADRGAEIESGNIFAMEINLAANLWRSFLYSNVALYLPDSYKITPDNITLPENKNTYAYMNGRVAVPSALDTYVNIGARWSPDPMDNVNPFNHHRNAGLRYRSMLLGNGRYVPFHIQVPQKFFAIKNLLLLPGSYTYEWNFRKDVNMILQSSLGNDLRVDGASVRFDSINLYANFFPMAHNTASTLEAMLRNDTNDQSFNDYLCAANMLYPIPSNATSVPISIPSRNWAAFRGWSFTRLKTKETPSLGSGFDPYFTYSGSVPYLDGTFYLNHTFKKVSIMFDSSVSWPGNDRLLTPNEFEIKRTVDGEGYNVAQCNMTKDWFLIQMLSHYNIGYQGFYVPESYKDRMYSFFRNFQPMSRQVVNTTTYKEYQNVTLPFQHNNSGFVGYMGPTMREGQAYPANYPYPLIGQTAVPSLTQKKFLCDRTMWRIPFSSNFMSMGALTDLGQNMLYANSAHALDMTFEVDPMDEPTLLYVLFEVFDVVRIHQPHRGVIEAVYLRTPFSAGNATT
# B2: HAdV-F41 capsid protein IX (natural protein, human adenovirus F41 (strain Tak), UniProt P32539 1-133, looked up)
# chain: MSGSMEGNAVSFKGGVFSPYLTTRLPAWAGVRQNVMGSNVDGRPVAPANSATLTYATVGSSVDTAAAAAASAAASTARGMAADFGLYNQLAASRSLREEDALSVVLTRMEELSQQLQDLFAKVALLNPPANAS
# Assays:
# Assay in all cases: cryo-EM structure
# [1] = biological target: HAdV-F41 penton base protein, virion-bound (human adenovirus F41 (strain Tak))
# cryo-EM structure = biological target: the molecule itself
# HAdV-F41 hexon protein = biological target: B1
Molecule,stoichiometry N [1],stoichiometry N (cryo-EM structure),binding result (HAdV-F41 hexon protein)
"HAdV-F41 penton base protein, virion-bound (natural protein)",5,,
B1,,3,
B2,,3,binds
